Laboratory results published in patent US20240117334A1, “FACTOR B PROTEASES” (Vertex Pharmaceuticals Incorporated, priority 2021, published 2024).
Residue numbers refer to the chain shown, from its start. In names and notes the source's numbering stands.

B1: chymase C22S/P38Q/K40A/F41Q/V138I/F173S/D175W/A190S/V213A/S218V/A226R (enzyme)
chain: IIGGTESKPHSRPYMAYLEIVTSNGQSAQCGGFLIRRNFVLTAAHCAGRSITVTLGAHNITEEEDTWQKLEVIKQFRHPKYNTSTLHHDIMLLKLKEKASLTLAVGTLPFPSQFNFVPPGRMCRIAGWGRTGVLKPGSDTLQEVKLRLMDPQACSHSRWFDHNLQLCVGNPRKTKSSFKGDSGGPLLCAGVAQGIASYGRVDAKPPRVFTRISHYRPWINQILQAN
B2: chymase C22S/P38Q/K40L/F41K/L99N/V138I/F173Y/D175S/A190S/V213A/S218I/A226R (enzyme)
chain: B1 chain with A28L, Q29K, L86N, S157Y, W159S, V201I
B3: chymase C22S/P38Q/K40M/F41H/L99N/V138I/F173Y/D175S/A190S/V213A/S218T/A226R (enzyme)
chain: B1 chain with A28M, Q29H, L86N, S157Y, W159S, V201T
B4: chymase C22S/P38Q/K40M/F41R/V138I/F173S/D175Y/A190S/V213A/S218V/A226R (enzyme)
chain: B1 chain with A28M, Q29R, W159Y
B5: chymase C22S/P38Q/K40M/F41R/V138I/F173Y/D175Y/A190S/V213A/S218I/A226R (enzyme)
chain: B1 chain with A28M, Q29R, S157Y, W159Y, V201I
B6: chymase C22S/P38Q/K40A/F41K/L99N/V138I/D175H/A190S/V213A/S218V/A226R (enzyme)
chain: B1 chain with Q29K, L86N, S157F, W159H
B7: chymase C22S/P38Q/K40Q/F41R/L99H/V138I/F173Y/D175S/A190S/V213A/S218V/A226R (enzyme)
chain: B1 chain with A28Q, Q29R, L86H, S157Y, W159S
B8: chymase C22S/P38Q/K40A/F41R/L99H/V138I/F173Y/A190S/V213A/S218V/A226R (enzyme)
chain: B1 chain with Q29R, L86H, S157Y, W159D
B9: chymase C22S/P38Q/K40A/F41R/L99H/V138I/F173Y/D175N/A190S/V213A/S218L/A226R (enzyme)
chain: B1 chain with Q29R, L86H, S157Y, W159N, V201L
B10: chymase C22S/P38Q/K40M/F41R/L99Y/V138I/F173L/D175Q/A190S/V213A/S218T/A226R (enzyme)
chain: B1 chain with A28M, Q29R, L86Y, S157L, W159Q, V201T
B11: chymase C22S/P38Q/K40L/F41R/V138I/D175N/A190S/V213A/S218V/A226R (enzyme)
chain: B1 chain with A28L, Q29R, S157F, W159N
B12: chymase C22S/P38Q/K40A/F41R/V138I/F173L/D175R/A190S/V213A/S218L/A226R (enzyme)
chain: B1 chain with Q29R, S157L, W159R, V201L
B13: chymase C22S/P38Q/K40M/F41R/L99Q/V138I/F173Y/D175A/A190S/V213A/S218T/A226R (enzyme)
chain: B1 chain with A28M, Q29R, L86Q, S157Y, W159A, V201T
B14: chymase C22S/P38Q/K40M/F41R/V138I/F173L/D175K/A190S/V213A/S218V/A226R (enzyme)
chain: B1 chain with A28M, Q29R, S157L, W159K
B15: chymase C22S/P38Q/K40M/F41R/L99Y/V138I/F173L/D175S/A190S/V213A/S218V/A226R (enzyme)
chain: B1 chain with A28M, Q29R, L86Y, S157L, W159S
B16: chymase C22S/P38Q/K40V/F41R/V138I/F173S/D175N/A190S/V213A/S218I/A226R (enzyme)
chain: B1 chain with A28V, Q29R, W159N, V201I
B17: chymase C22S/P38Q/K40L/F41R/V138I/F173L/D175R/A190S/V213A/S218V/A226R (enzyme)
chain: B1 chain with A28L, Q29R, S157L, W159R
B18: chymase C22S/P38Q/K40M/F41R/V138I/F173L/D175N/A190S/V213A/S218L/A226R (enzyme)
chain: B1 chain with A28M, Q29R, S157L, W159N, V201L
B19: chymase C22S/P38Q/K40A/F41R/L99Y/V138I/F173L/D175R/A190S/V213A/S218L/A226R (enzyme)
chain: B1 chain with Q29R, L86Y, S157L, W159R, V201L
B20: chymase C22S/P38Q/K40M/F41R/L99S/V138I/F173Y/D175N/A190S/V213A/S218V/A226R (enzyme)
chain: B1 chain with A28M, Q29R, L86S, S157Y, W159N
B21: chymase C22S/P38Q/K40M/F41R/L99N/V138I/F173Y/D175F/A190S/V213A/S218V/A226R (enzyme)
chain: B1 chain with A28M, Q29R, L86N, S157Y, W159F
B22: chymase C22S/P38Q/K40M/F41R/L99W/V138I/F173M/D175H/A190S/V213A/S218T/A226R (enzyme)
chain: B1 chain with A28M, Q29R, L86W, S157M, W159H, V201T
B23: chymase C22S/P38Q/K40L/F41R/L99N/V138I/F173Y/D175T/A190S/V213A/S218V/A226R (enzyme)
chain: B1 chain with A28L, Q29R, L86N, S157Y, W159T
B24: chymase C22S/P38Q/K40V/F41R/L99H/V138I/F173M/D175N/A190S/V213A/S218T/A226R (enzyme)
chain: B1 chain with A28V, Q29R, L86H, S157M, W159N, V201T
B25: chymase C22S/P38Q/K40V/F41R/V138I/F173L/D175N/A190S/V213A/S218V/A226R (enzyme)
chain: B1 chain with A28V, Q29R, S157L, W159N
B26: chymase C22S/P38Q/K40Q/F41R/V138I/F173Y/D175N/A190S/V213A/S218V/A226R (enzyme)
chain: B1 chain with A28Q, Q29R, S157Y, W159N
B27: chymase C22S/P38Q/K40M/F41R/L99Y/V138I/F173S/D175S/A190S/V213A/S218T/A226R (enzyme)
chain: B1 chain with A28M, Q29R, L86Y, W159S, V201T
B28: chymase C22S/P38Q/K40M/F41R/L99Y/V138I/F173Y/D175S/A190S/V213A/S218V/A226R (enzyme)
chain: B1 chain with A28M, Q29R, L86Y, S157Y, W159S
B29: chymase C22S/P38Q/K40L/F41R/L99F/V138I/F173L/D175N/A190S/V213A/A226R (enzyme)
chain: B1 chain with A28L, Q29R, L86F, S157L, W159N, V201S

These binders were tested against Human Factor B (human) (UniProt P00751) (assay: cell-based or functional assay).
Chain of Human Factor B (human) (P00751 26-764 limits assumed): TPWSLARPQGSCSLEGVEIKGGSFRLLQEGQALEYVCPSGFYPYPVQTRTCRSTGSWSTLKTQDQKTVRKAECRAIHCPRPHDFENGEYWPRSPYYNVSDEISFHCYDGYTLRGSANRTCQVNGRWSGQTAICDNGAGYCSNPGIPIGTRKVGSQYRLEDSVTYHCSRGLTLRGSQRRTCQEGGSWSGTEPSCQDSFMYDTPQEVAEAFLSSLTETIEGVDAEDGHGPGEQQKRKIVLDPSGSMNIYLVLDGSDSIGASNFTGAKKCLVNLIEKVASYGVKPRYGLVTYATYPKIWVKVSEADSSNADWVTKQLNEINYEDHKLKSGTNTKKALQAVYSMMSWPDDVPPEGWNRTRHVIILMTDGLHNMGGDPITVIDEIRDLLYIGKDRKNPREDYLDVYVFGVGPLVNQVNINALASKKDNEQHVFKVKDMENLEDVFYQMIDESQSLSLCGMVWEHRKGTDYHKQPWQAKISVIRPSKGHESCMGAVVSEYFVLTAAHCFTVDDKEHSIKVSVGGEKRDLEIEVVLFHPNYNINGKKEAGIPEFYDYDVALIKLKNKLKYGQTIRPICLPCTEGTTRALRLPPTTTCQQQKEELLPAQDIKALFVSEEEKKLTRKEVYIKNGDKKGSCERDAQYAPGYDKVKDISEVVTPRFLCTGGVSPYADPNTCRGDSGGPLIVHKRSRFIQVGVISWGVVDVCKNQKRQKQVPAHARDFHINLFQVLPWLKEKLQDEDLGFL

Binder	fB Cleavage EC50 [nM]
B1	2190
B2	144
B3	561
B4	287
B5	465
B6	121
B7	150
B8	406
B9	139
B10	1650
B11	114
B12	283
B13	724
B14	350
B15	814
B16	717
B17	113
B18	482
B19	511
B20	472
B21	193
B22	414
B23	57.6
B24	639
B25	279
B26	100
B27	10600
B28	103
B29	631
